Source: article doi:10.1101/2023.01.10.523378
Several values for one entry are separate records, joined by “and”; a condition that tells them apart may be missing. Identical values can stand only once.

What was measured:
[1] = target: rat CaMKIIα holoenzyme (apo, nonphosphorylated) (rat) (UniProt P11275); test: high-speed atomic force microscopy
[2] = target: rat CaMKIIα holoenzyme phosphorylated at Thr286 (rat) (UniProt P11275); test: high-speed atomic force microscopy

Row | fraction of Ca2+/CaM bound longer than 60 s [1] [%] | fraction of Ca2+/CaM bound longer than 60 s [2] [%] | stoichiometry N [1] | Substance
1 | 41.1 | 77.3 | – | Ca2+/calmodulin (from UniProt P0DP23 1-149) (natural protein)
2 | – | – | 12 and 14 | rat CaMKIIα holoenzyme (apo, nonphosphorylated) (from UniProt P11275 1-478)
